{"source": "patent US20240141062A1", "about": "(published 2024)", "key": {"[1]": {"biological_target": "T1, human CD38 on tumor cells (human, UniProt P28907 1-300)", "T1 construct": "whole, on cells; Endogenous CD38 of the cell lines; also called CD38 on Raji-CD47KO cells", "assay": "flow cytometry on Raji-CD47KO cells"}, "[2]": {"biological_target": "T2, human CD47 on cells (human, UniProt Q08722 19-323)", "T2 construct": "whole, on cells; Endogenous CD47 of the cells; also called CD47 on Daudi cells; CD47 on RBCs", "assay": "flow cytometry on human red blood cells"}}, "data": [{"binder": "BEAT CD38/CD47-60 (bispecific antibody, human IgG1, kappa, 2+1 biparatopic BEAT: anti-CD47-H2 arm on BEAT (A); BEAT (B) carries Fc distal anti-CD38-B6-D9 and Fc proximal anti-CD38-E2-RecA Fabs; BEAT (A): S239D + I332E + S324N, BEAT (B): S324N; also called BEAT CD38/47-60; BEAT 38/47-60) heavy 1: EVQLVESGGGLIQPGGSLRLSCAASGFTLSRNTMHWVRQAPGKGLEWVSVIYQSGVTRYADSVKSRFTISRDNSKNTLYLQMNSLRAEDTAVYYCARGRYGVAGGPGYAFDVWGQGTLVTVSSASTKGPSVFPLAPSSKSTSGGTAALGCLVKDYFPEPVTVSWNSGALTSGVHTFPAVLQSSGLYSLSSVVTVPSSSLGTQTYICNVNHKPSNTKVDKKVEPKSCDKTHTCPPCPAPELLGGPDVFLFPPKPKDTLMISRTPEVTCVVVDVSHEDPEVKFNWYVDGVEVHNAKTKPREEQYNSTYRVVSVLTVLHQDWLNGKEYKCKVNNKALPAPEEKTISKAKGQPREPAVYTLPPSREEMTKNQVKLVCLVTGFYPSDIAVEWESSGQPENNYYTTPPMLDSDGSFSLVSWLNVDKSRWQQGNIFSCSVMHEALHNRFTQKSLSLSPG heavy 2: not shown light: not shown", "values": [{"measurement": "binding result", "setting": "[1]", "value": "binds"}, {"measurement": "binding result", "setting": "[2]", "value": "binds"}]}]}
